The record followed here is patent US20180251489A1.

Usually Ki stands for the equilibrium dissociation constant of an inhibitor or competing ligand from its target. Higher therefore signals weaker binding.

In this test the target is mucosa-associated lymphoid tissue lymphoma translocation protein 1 (UniProt Q9UDY8). Nature of the test: enzyme inhibition assay, 100 nM MALT1.
mucosa-associated lymphoid tissue lymphoma translocation protein 1, sequence (Q9UDY8 340-789): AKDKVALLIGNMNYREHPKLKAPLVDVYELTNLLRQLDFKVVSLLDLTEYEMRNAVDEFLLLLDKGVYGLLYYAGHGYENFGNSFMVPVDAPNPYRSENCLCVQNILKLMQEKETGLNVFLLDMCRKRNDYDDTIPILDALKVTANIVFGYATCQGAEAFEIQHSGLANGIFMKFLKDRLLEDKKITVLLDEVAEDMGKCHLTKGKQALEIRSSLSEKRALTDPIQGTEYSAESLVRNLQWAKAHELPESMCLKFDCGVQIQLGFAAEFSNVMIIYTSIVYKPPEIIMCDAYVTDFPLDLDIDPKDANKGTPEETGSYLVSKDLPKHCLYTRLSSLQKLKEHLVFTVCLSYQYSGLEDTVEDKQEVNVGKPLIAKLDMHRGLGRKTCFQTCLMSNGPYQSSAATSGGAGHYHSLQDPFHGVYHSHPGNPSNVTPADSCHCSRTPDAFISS
In the case of “2-Chlorobenzyl ((S)-1-((S)-2-(((S)-1-fluoro-6-guanidino-2-oxohexan-3-yl)carbamoyl)pyrrolidin-1-yl)-3-methyl-1-oxobutan-2-yl)carbamate (peptide)”, the Ki came to 27 nM.
Turning to “3-Chlorobenzyl ((S)-1-((S)-2-(((S)-1-fluoro-6-guanidino-2-oxohexan-3-yl)carbamoyl)pyrrolidin-1-yl)-3-methyl-1-oxobutan-2-yl)carbamate (peptide)”, the inhibition constant Ki came to 22 nM.
In the case of “4-Bromo-N-((S)-1-(((S)-1-(((S)-1-fluoro-6-guanidino-2-oxohexan-3-yl)amino)-1-oxopropan-2-yl)amino)-3-methyl-1-oxobutan-2-yl)benzamide (peptide)”, the Ki was 38 nM.
“4-Bromo-N-((S)-1-cyclohexyl-2-(((S)-1-(((S)-1-fluoro-6-guanidino-2-oxohexan-3-yl)amino)-3-hydroxy-1-oxopropan-2-yl)amino)-2-oxoethyl)benzamide (peptide)” had a Ki of 46 nM.
Next, “4-Chlorobenzyl ((S)-1-((S)-2-(((S)-1-fluoro-6-guanidino-2-oxohexan-3-yl)carbamoyl)pyrrolidin-l-yl)-3-methyl-1-oxobutan-2-yl)carbamate (peptide)”: 32 nM.
The substance “4-bromo-N-((S)-1-(((S)-1-(((S)-1-fluoro-6-guanidino-2-oxohexan-3-yl)amino)-3-hydroxy-1-oxopropan-2-yl)amino)-3-methyl-1-oxobutan-2-yl)benzamide (peptide)” showed a Ki of 64 nM.
The substance “(2S,4R)-1-((4-Bromobenzoyl)-L-valyl)-4-cyano-N-((S)-1-fluoro-6-guanidino-2-oxohexan-3-yl)pyrrolidine-2-carboxamide (peptide)” came in with a Ki of 28 nM.
For “(2S,4R)-1-((4-Bromobenzoyl)-L-valyl)-N-((S)-1-fluoro-6-guanidino-2-oxohexan-3-yl)-4-hydroxypyrrolidine-2-carboxamide (peptide)”, the Ki came out at 50 nM.
Next, “(2S,4R)-1-((S)-2-(4-Bromobenzamido)-2-cyclohexylacetyl)-N-((S)-1-fluoro-6-guanidino-2-oxohexan-3-yl)-4-hydroxypyrrolidine-2-carboxamide (peptide)”: 34 nM; “(S)-1-((1-naphthoyl)-L-valyl)-N-((S)-1-fluoro-6-guanidino-2-oxohexan-3-yl)pyrrolidine-2-carboxamide (peptide)”: 102 nM; “(S)-1-((2-(3-Bromophenyl)acetyl)-L-valyl)-N-((S)-1-fluoro-6-guanidino-2-oxohexan-3-yl)pyrrolidine-2-carboxamide (peptide)”: 46 nM.
Next, “(S)-1-((2-Bromobenzoyl)-L-valyl)-N-((S)-1-fluoro-6-guanidino-2-oxohexan-3-yl)pyrrolidine-2-carboxamide (peptide)”: 105 nM; “(S)-1-((2-naphthoyl)-L-valyl)-N-((S)-1-fluoro-6-guanidino-2-oxohexan-3-yl)pyrrolidine-2-carboxamide (peptide)”: 47 nM; “(S)-1-((3-Bromobenzoyl)-L-valyl)-N-((S)-1-fluoro-6-guanidino-2-oxohexan-3-yl)pyrrolidine-2-carboxamide (peptide)”: 41 nM.
“(S)-1-((3-acetamidobenzoyl)-L-valyl)-N-((S)-1-fluoro-6-guanidino-2-oxohexan-3-yl)pyrrolidine-2-carboxamide (peptide)”: the Ki is 54 nM.
“(S)-1-((3-cyanobenzoyl)-L-valyl)-N-((S)-1-fluoro-6-guanidino-2-oxohexan-3-yl)pyrrolidine-2-carboxamide (peptide)” showed a Ki of 39 nM.
The figure for “(S)-1-((4-(tert-Butyl)benzoyl)-L-valyl)-N-((S)-1-fluoro-6-guanidino-2-oxohexan-3-yl)pyrrolidine-2-carboxamide (peptide)” is 45 nM; for “(S)-1-((4-Bromo-2-fluorobenzoyl)-L-valyl)-N-((S)-1-fluoro-6-guanidino-2-oxohexan-3-yl)pyrrolidine-2-carboxamide (peptide)” it is 71 nM.
“(S)-1-((4-Bromo-2-methylbenzoyl)-L-valyl)-N-((S)-1-fluoro-6-guanidino-2-oxohexan-3-yl)pyrrolidine-2-carboxamide (peptide)” had a Ki of 40 nM.
“(S)-1-((4-Bromobenzoyl)-L-leucyl)-N-((S)-1-fluoro-6-guanidino-2-oxohexan-3-yl)pyrrolidine-2-carboxamide (peptide)” showed a Ki of 182 nM.
Turning to “(S)-1-((4-Bromobenzoyl)-L-valyl)-N-((S)-1-fluoro-6-guanidino-2-oxohexan-3-yl)azetidine-2-carboxamide (peptide)”, the Ki was determined as 118 nM.
In turn, “(S)-1-((4-Bromobenzoyl)-L-valyl)-N-((S)-1-fluoro-6-guanidino-2-oxohexan-3-yl)pyrrolidine-2-carboxamide (peptide)” returned a Ki of 10 nM.
In turn, “(S)-1-((4-Cyanobenzoyl)-L-valyl)-N-((S)-1-fluoro-6-guanidino-2-oxohexan-3-yl)pyrrolidine-2-carboxamide (peptide)” gave an inhibition constant (Ki) of 60 nM.
Substance “(S)-1-((4-bromo-3-cyanobenzoyl)-L-valyl)-N-((S)-1-fluoro-6-guanidino-2-oxohexan-3-yl)pyrrolidine-2-carboxamide (peptide)” returned a Ki of 13 nM.
For the substance “(S)-1-((4-bromo-3-fluorobenzoyl)-L-valyl)-N-((S)-1-fluoro-6-guanidino-2-oxohexan-3-yl)pyrrolidine-2-carboxamide (peptide)”, the Ki came out at 78 nM.
The figure for “(S)-1-((4-bromobenzoyl)-L-valyl)-N-((S)-1-fluoro-6-guanidino-2-oxohexan-3-yl)piperidine-2-carboxamide (peptide)” is 79 nM.
Regarding “(S)-1-((4-chloro-3-cyanobenzoyl)-L-valyl)-N-((S)-1-fluoro-6-guanidino-2-oxohexan-3-yl)pyrrolidine-2-carboxamide (peptide)”, the inhibitory constant (Ki) turned out to be 24 nM.
In turn, “(S)-1-((4-chlorobenzoyl)-L-valyl)-N-((S)-1-fluoro-6-guanidino-2-oxohexan-3-yl)pyrrolidine-2-carboxamide (peptide)” displayed a Ki of 67 nM.
For “(S)-1-(((2-Chlorophenyl)carbamoyl)-L-valyl)-N-((S)-1-fluoro-6-guanidino-2-oxohexan-3-yl)pyrrolidine-2-carboxamide (peptide)”, the inhibitory constant (Ki) was found to be 24 nM.
On to “(S)-1-(((3-Chlorophenyl)carbamoyl)-L-valyl)-N-((R)-1-fluoro-6-guanidino-2-oxohexan-3-yl)pyrrolidine-2-carboxamide (peptide)”, for which the Ki amounted to 557 nM.
The substance “(S)-1-(((3-Chlorophenyl)carbamoyl)-L-valyl)-N-((S)-1-fluoro-6-guanidino-2-oxohexan-3-yl)pyrrolidine-2-carboxamide (peptide)” registered a Ki of 27 nM.
Substance “(S)-1-(((4-Bromophenyl)sulfonyl)-L-valyl)-N-((S)-1-fluoro-6-guanidino-2-oxohexan-3-yl)pyrrolidine-2-carboxamide (peptide)” had a Ki of 66 nM.
The substance “(S)-1-(((4-Chlorophenyl)carbamoyl)-L-valyl)-N-((S)-1-fluoro-6-guanidino-2-oxohexan-3-yl)pyrrolidine-2-carboxamide (peptide)” returned a Ki of 62 nM.
Next, “(S)-1-((Cyclohexanecarbonyl)-L-valyl)-N-((S)-1-fluoro-6-guanidino-2-oxohexan-3-yl)pyrrolidine-2-carboxamide (peptide)”: 56 nM; “(S)-1-((S)-2-(4-Bromobenzamido)-3-(4-(trifluoromethyl)phenyl)propanoyl)-N-((S)-1-fluoro-6-guanidino-2-oxohexan-3-yl)pyrrolidine-2-carboxamide (peptide)”: 448 nM.
As to “(S)-1-((S)-2-(4-Bromobenzamido)-3-cyclohexylpropanoyl)-N-((S)-1-fluoro-6-guanidino-2-oxohexan-3-yl)pyrrolidine-2-carboxamide (peptide)”, the Ki is 122 nM.
As to “(S)-1-((S)-2-(4-bromobenzamido)-2-cyclohexylacetyl)-N-((S)-1-fluoro-6-guanidino-2-oxohexan-3-yl)pyrrolidine-2-carboxamide (peptide)”, the Ki is 45 nM.
As for “(S)-1-(([1,1′-biphenyl]-4-carbonyl)-L-valyl)-N-((S)-1-fluoro-6-guanidino-2-oxohexan-3-yl)pyrrolidine-2-carboxamide (peptide)”, the Ki came out at 30 nM.
Substance “(S)-1-(Benzoyl-L-valyl)-N-((S)-1-fluoro-6-guanidino-2-oxohexan-3-yl)pyrrolidine-2-carboxamide (peptide)” yielded a Ki of 40 nM.
On to “(S)-1-(cinnamoyl-L-valyl)-N-((S)-1-fluoro-6-guanidino-2-oxohexan-3-yl)pyrrolidine-2-carboxamide (peptide)”, for which the Ki stood at 36 nM.
The figure for “(S)-3-((4-Bromobenzoyl)-L-valyl)-N-((S)-1-fluoro-6-guanidino-2-oxohexan-3-yl)oxazolidine-4-carboxamide (peptide)” is 20 nM; for “(S)-4-((4-Bromobenzoyl)-L-valyl)-N-((S)-1-fluoro-6-guanidino-2-oxohexan-3-yl)morpholine-3-carboxamide (peptide)” it is 70 nM; for “(S)-N-((R)-1-Fluoro-6-guanidino-2-oxohexan-3-yl)-1-((4-fluorobenzoyl)-L-valyl)pyrrolidine-2-carboxamide (peptide)” it is 346 nM.
In turn, “(S)-N-((S)-1-Fluoro-6-guanidino-2-oxohexan-3-yl)-1-((2-methoxybenzoyl)-L-valyl)pyrrolidine-2-carboxamide (peptide)” registered a Ki of 109 nM.
The figure for “(S)-N-((S)-1-Fluoro-6-guanidino-2-oxohexan-3-yl)-1-((2-phenylacetyl)-L-valyl)pyrrolidine-2-carboxamide (peptide)” is 42 nM; for “(S)-N-((S)-1-Fluoro-6-guanidino-2-oxohexan-3-yl)-1-((3-methoxybenzoyl)-L-valyl)pyrrolidine-2-carboxamide (peptide)” it is 75 nM.
